# In article PMC6172241, “A multisubstrate reductase from Plantago major: structure-function in the short chain reductase superfamily” (Scientific Reports, 2018):
# How the values were obtained:
# Experiment in all cases: purified protein
# purified protein [1] = substrate: C/C(C=O)=C\CC/C(C)=C/C=O; conditions: 150 µM NADPH, 20 mM MOPS pH 7.0, 3% DMSO, reductive cyclisation to nepetalactol, crystal structure with NADP+ at 1.86 Å
# purified protein [2] = substrate: CC(=O)[C@H]1CC[C@H]2[C@@H]3CCC4=CC(=O)CC[C@]4(C)[C@H]3CC[C@]12C; conditions: 150 µM NADPH, 20 mM MOPS pH 7.0, 3% DMSO, substrate 10-200 µM (limited solubility), crystal structure with NAD+ at 2.7 Å, poor ligand density
# purified protein [3] = substrate: CC(C)=CCC/C(C)=C/C=O; conditions: 150 µM NADPH, 20 mM MOPS pH 7.0, 3% DMSO, geranial/neral mixture
protein,measurement,setting,value
PmMOR (P. major multisubstrate oxido-reductase) (Plantago major) (protein) MSWWWAGAIGAAKKRSDEDEALPKHSSVALIVGVTGIVGNSLAEILPLADTPSGPWKVYGVARRPRPAWNEDNPINYIRCDISDPKDTQEKLSPLTDITHVFYVTWANRSTEVERCEANGKMLKNVLDVVIPNCPDLKHISLQTGRKHYVGPFELIGKIETHDPPFTEDLPRLKFDNFYYTQEDLLFEEVEKKEGLTWSVHRPGNIFGFSPYSMMNLVGTLCVYAAICKHEGKVLRFPGCKAAWDGYSDCSDADLIAEHHIWAAVDPYAKNEAFNVSNGDVFKWKHFWKVLAEQFGVECGEYEEGENLKLQDLMKGKEPVWEEIVRENGLASTNLEDVAVWWFSDAVLDIPCPLDSMNKSKEHGFLGFRNSKNSFISWIDKAKAYKIVP,Km,purified protein [1],368 ± 37 µM
same,Vmax,purified protein [1],0.0053 µmol/min
same,kcat/Km,purified protein [1],2600 M⁻¹ s⁻¹
same,Km,purified protein [2],28 ± 3.0 µM
same,Vmax,purified protein [2],0.00014 µmol/min
same,kcat/Km,purified protein [2],2100 M⁻¹ s⁻¹
same,Km,purified protein [3],82 ± 4.5 µM
same,Vmax,purified protein [3],0.00152 µmol/min
same,kcat/Km,purified protein [3],17000 M⁻¹ s⁻¹
